Several values for one entry are separate records, joined by “and”; a condition that tells them apart may be missing. Equal entries are not always repeated. Where two headings read alike, the source gives them in different places.
Tests used:
in vivo = conditions: male, NSG, mouse, iv, 1 nmol/mouse, total radioactivity, biodistribution
Protocol: As documented in the literature, engineered PC3-Pip cells express particularly high PSMA levels, which are not representative for the situation in human tumors (mean number of PSMA binding sites = 4.9 × 10^6 sites/cell for PC3-Pip cells vs. 5.9 × 10^5 sites/cell for LNCaP [60]). Thus, to correlate quantitative data with in vivo/ex vivo fluorescence signals, a biodistribution study was conducted under the same conditions as the fluorescence imaging. NSG mice bearing PC3-Pip (PSMA+) and PC3 WT (PSMA-) xenografts on opposite shoulders received [^99mTc]Tc-PSMA-HSG (1 nmol), and biodistribution was assessed at 2 h p.i. (Supplementary Table 1). The overall distribution matched previous data from LNCaP-bearing mice (Table 3), but tumor uptake was over twice as high (26.6 ± 5.0%iD/g). Low uptake in PC3 WT tumors (1.6 ± 0.3%iD/g) confirmed PSMA-specificity.
PC-3 PIP xenografts were established by subcutaneous injection of 5 × 10^6 PC3-PIP cells/mouse using 8–12-week-old male NSG mice (in-house breeding, Dpt. of Oncology, University of Lausanne) as previously described. Tumors reached a size of 4-8 mm in diameter after 5-6 days and were then immediately used for the fluorescence imaging studies.

PSMA = PSMA (Homo sapiens, UniProt Q04609); format: in vivo; set-up: Five patients with a diagnosis of initial (n = 4) or biochemical recurrence of (n = 1) histologically proven prostate cancer; from tissue; host or cells: prostate cancer patients: primary tumour, lymph nodes, resected tissue sections
Chain of PSMA (Q04609 whole entry): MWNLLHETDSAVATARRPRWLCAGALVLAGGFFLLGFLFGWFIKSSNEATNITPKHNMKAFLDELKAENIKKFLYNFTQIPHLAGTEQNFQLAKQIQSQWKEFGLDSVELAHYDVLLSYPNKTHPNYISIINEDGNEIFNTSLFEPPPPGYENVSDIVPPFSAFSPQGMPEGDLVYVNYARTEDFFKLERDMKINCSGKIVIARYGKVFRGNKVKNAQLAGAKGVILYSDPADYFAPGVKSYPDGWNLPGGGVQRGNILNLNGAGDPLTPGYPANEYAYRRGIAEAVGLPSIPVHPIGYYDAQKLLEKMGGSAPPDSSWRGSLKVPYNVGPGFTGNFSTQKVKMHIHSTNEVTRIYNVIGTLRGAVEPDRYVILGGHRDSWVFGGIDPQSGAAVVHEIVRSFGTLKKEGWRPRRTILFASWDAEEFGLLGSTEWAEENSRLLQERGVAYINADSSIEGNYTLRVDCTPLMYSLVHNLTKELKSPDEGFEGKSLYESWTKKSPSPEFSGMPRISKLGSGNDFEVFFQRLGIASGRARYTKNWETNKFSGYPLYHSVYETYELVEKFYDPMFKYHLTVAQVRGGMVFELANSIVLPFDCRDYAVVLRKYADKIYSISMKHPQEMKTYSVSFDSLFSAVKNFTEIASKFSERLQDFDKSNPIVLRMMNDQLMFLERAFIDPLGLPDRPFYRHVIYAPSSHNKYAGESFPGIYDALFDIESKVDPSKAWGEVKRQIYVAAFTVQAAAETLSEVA
Text: For all patients, radioguided surgery had been recommended by the local multidisciplinary tumor board. […] Attenuation maps were generated on the basis of low-dose CT. For a detailed protocol of imaging parameters and the dosimetry protocol please refer to the Supplementary Material. […] A scatter window ranging from 114 to 126 keV was additionally acquired for planar and SPECT imaging. For SPECT, the imaging field of view was from neck to upper thighs. At each bed position, 60 views were acquired, with a duration of 8 s each. Subsequently, images were reconstructed using an ordered subset expectation maximisation (OSEM) algorithm (2 iterations and 10 subsets) with a Butterworth filter (fc = 0.48, n = 10). Scatter and attenuation correction was applied. For whole-body planar imaging, a scan speed of 30 cm/min was employed until 60 min post-injection, after which the acquisition speed was moderated to 12 cm/min for any further data collection.

[1] = Lipophilicity, modified shake-flask method; format: physicochemical
Protocol: The lipophilicity of [^99mTc]Tc-PSMA-HSG was determined via a modified shake-flask method as described.

human serum = experiment: Plasma protein binding (B50), ultrafiltration, human serum; format: in vitro ADME
Protocol: (§1) A detailed experimental procedure is provided in the Supplementary Material. […] Briefly, protein solutions (maximum concentration: […] Samples were briefly vortexed and incubated for 30 min at 37 °C. […] The filter units were then removed from the centrifugal tubes and washed twice with 300 µL PBS to recover the protein fraction. The activity in the filtrate, filter and protein fraction were then quantified using a γ-counter. […] The percentages of radioligand bound to the respective proteins are represented as means ± standard deviation (SD) of three independent experiments.

[2] = target: human serum albumin (HSA) (Homo sapiens, UniProt P02768); experiment: Plasma protein binding (B50), ultrafiltration, HSA; format: in vitro ADME
Chain of human serum albumin (HSA) (P02768 25-609): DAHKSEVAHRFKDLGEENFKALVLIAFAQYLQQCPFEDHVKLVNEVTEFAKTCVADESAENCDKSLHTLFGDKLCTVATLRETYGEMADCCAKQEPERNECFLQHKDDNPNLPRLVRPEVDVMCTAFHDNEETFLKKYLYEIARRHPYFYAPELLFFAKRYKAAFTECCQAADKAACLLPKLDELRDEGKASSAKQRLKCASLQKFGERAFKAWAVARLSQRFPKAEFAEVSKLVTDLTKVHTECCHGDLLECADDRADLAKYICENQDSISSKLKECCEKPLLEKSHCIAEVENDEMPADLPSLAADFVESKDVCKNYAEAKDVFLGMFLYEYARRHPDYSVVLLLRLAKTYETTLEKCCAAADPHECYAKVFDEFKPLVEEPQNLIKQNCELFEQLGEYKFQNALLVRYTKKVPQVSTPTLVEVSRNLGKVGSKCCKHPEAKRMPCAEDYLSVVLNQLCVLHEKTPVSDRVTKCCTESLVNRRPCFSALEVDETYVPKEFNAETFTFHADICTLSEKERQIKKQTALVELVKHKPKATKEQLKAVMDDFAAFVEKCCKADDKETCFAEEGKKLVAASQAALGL
Protocol: as §1

[3] = exploratory cohort, five patients
[4] = subjects with newly diagnosed PCa

Structure (SMILES): C[N+]1=C(/C=C/C=C/C=C2/N(CCCCCC(=O)NCCCC[C@@H](NC(=O)[C@@H](CO)NC(=O)[C@@H](CO)NC(=O)[C@@H](CO)NC(=O)CS)C(=O)N[C@H](Cc3ccc(O)cc3)C(=O)N[C@H](Cc3ccc4ccccc4c3)C(=O)N[C@H](CCCCNC(=O)CCCCCCC(=O)NCCCC[C@H](NC(=O)N[C@@H](CCC(=O)O)C(=O)O)C(=O)O)C(=O)O)c3ccc(S(=O)(=O)[O-])cc3C2(C)C)C(C)(C)c2cc(S(=O)(=O)O)ccc21 [[^99mTc]Tc-PSMA-HSG, metal not drawn]
- tissue uptake at 2 h (in vivo; PC3-Pip tumor): 26.6 ± 5 %ID/g
- tissue uptake at 2 h (in vivo; PC3 WT tumor): 1.6 ± 0.3 %ID/g
- tissue uptake at 2 h (in vivo; blood): 2.8 ± 0.4 %ID/g
- tissue uptake at 2 h (in vivo; heart): 1.5 ± 0.3 %ID/g
- tissue uptake at 2 h (in vivo; intestines): 0.9 ± 0.1 %ID/g
- tissue uptake at 2 h (in vivo; kidneys): 100 ± 8.2 %ID/g
- tissue uptake at 2 h (in vivo; liver): 2.9 ± 0.5 %ID/g
- tissue uptake at 2 h (in vivo; lung): 4.1 ± 1.2 %ID/g
- tissue uptake at 2 h (in vivo; muscle): 0.6 ± 0.1 %ID/g
- tissue uptake at 2 h (in vivo; pancreas): 0.9 ± 0.2 %ID/g
- tissue uptake at 2 h (in vivo; salivary glands): 2.2 ± 0.4 %ID/g
- tissue uptake at 2 h (in vivo; spleen): 8.2 ± 0.7 %ID/g
- tissue uptake at 2 h (in vivo; stomach): 1.5 ± 0.1 %ID/g
- scintigraphy findings (PSMA; Patient #1, 53 µg): Two positive LN in the right and left external iliac region
- scintigraphy findings (PSMA; Patient #2, 53 µg): Moderate tracer uptake of the primary No positive LN
- scintigraphy findings (PSMA; Patient #3, 53 µg): Moderate tracer uptake of the primary No positive LN
- scintigraphy findings (PSMA; Patient #4, 350 µg): No discernible tracer uptake of the primary No discernible tracer uptake in the right iliac LN
- scintigraphy findings (PSMA; Patient #5, 250 µg): Moderate tracer uptake of the primary No positive LN
- negative predictive value (NPV) of SPECT/CT (PSMA; [3]): 94%
- positive predictive value (PPV) of SPECT/CT (PSMA; [3]): 100%
- sensitivity of SPECT/CT (PSMA; [3]): 33%
- specificity of SPECT/CT (PSMA; [3]): 100%
- clearance in patients, visual image analysis (PSMA; human, in vivo): swift activity clearance from blood/background via rapid renal excretion
- intestinal accumulation in patients (PSMA; human, in vivo): Virtually no intestinal accumulation
- PET-suspicious lymph nodes positive in scintigraphy (PSMA; [4]): 2/10
- primary tumor delineated / visualized (PSMA; [4]): 3 out of 4 and 3/4
- logD [1]: -2.94
- B50 HS (human serum): 220 ± 35
- B50 HSA [2]: 273 ± 36

Source: paper PMC13013135, “[^99mTc]Tc-PSMA-HSG for PSMA-targeted Hybrid Surgical Guidance: a new addition to the PSMA-I&S/I&T family” (European Journal of Nuclear Medicine and Molecular Imaging, 2025)
